Experiments:
[1] = molecular target: PRC2 5-mer WT (EZH2-SUZ12-EED-RBBP4-AEBP2) (UniProt Q15910;Q15022;O75530;Q09028;Q6ZN18 1-746;1-739;1-441;1-425;1-517); assay: EMSA
[2] = molecular target: T1, PRC2 5-mer MT (RNA-binding mutant EZH2) (UniProt Q15910;Q15022;O75530;Q09028;Q6ZN18 1-746;1-739;1-441;1-425;1-517, F32A;R34A;D36A;K39A;P489N;R490A;K491A;K492I;K493R;R494S); assay: EMSA
[3] = molecular target: T1, PRC2 5-mer MT (RNA-binding mutant EZH2); assay: fluorescence anisotropy
[4] = molecular target: PRC2 4-mer MT (RNA-binding mutant EZH2) (UniProt Q15910;Q15022;O75530;Q09028 1-746;1-739;1-441;1-425, F32A;R34A;D36A;K39A;P489N;R490A;K491A;K492I;K493R;R494S); assay: fluorescence anisotropy
PRC2 4-mer MT (RNA-binding mutant EZH2), sequence (Q15910 whole entry F32A/R34A/D36A/K39A/P489N/R490A/K491A/K492I/K493R/R494S, chain 1 of 4): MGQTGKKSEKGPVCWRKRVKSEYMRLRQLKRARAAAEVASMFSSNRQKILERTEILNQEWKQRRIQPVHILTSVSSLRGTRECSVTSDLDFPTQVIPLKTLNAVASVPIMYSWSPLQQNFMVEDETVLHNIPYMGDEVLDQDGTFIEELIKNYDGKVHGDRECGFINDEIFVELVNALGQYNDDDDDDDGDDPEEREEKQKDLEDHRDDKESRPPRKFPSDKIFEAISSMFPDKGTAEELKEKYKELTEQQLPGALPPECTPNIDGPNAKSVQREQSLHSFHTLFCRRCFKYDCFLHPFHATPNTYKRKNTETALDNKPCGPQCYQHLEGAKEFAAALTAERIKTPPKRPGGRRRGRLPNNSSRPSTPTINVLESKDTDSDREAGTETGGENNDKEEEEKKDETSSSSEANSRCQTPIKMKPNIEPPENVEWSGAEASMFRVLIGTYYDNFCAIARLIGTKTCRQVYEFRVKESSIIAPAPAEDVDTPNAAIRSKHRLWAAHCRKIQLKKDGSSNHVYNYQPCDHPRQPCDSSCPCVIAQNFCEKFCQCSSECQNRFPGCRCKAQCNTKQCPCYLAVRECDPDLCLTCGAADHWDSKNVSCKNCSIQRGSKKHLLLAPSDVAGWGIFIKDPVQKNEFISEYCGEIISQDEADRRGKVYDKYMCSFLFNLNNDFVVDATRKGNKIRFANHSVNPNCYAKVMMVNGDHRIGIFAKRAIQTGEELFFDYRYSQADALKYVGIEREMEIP
PRC2 4-mer MT (RNA-binding mutant EZH2), sequence (Q15022 whole entry, stated change not applied, chain 2 of 4): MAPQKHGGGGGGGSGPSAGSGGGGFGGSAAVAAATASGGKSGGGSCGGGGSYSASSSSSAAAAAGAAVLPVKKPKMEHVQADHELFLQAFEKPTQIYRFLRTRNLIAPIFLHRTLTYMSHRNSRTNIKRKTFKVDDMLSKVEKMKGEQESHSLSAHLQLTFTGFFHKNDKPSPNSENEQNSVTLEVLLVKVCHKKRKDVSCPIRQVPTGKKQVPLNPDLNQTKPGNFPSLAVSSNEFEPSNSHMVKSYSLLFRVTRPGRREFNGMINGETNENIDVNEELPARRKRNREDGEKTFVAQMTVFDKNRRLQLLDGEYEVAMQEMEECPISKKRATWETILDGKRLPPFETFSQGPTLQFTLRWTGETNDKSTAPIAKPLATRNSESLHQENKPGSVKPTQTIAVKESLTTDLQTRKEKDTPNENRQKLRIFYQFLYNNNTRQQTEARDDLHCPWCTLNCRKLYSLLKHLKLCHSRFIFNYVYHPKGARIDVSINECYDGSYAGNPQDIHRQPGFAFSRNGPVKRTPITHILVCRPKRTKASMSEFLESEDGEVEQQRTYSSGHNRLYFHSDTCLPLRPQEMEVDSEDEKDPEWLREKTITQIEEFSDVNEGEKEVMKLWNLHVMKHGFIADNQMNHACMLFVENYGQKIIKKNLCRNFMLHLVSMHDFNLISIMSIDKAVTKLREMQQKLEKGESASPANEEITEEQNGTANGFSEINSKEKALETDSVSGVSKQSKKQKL
PRC2 4-mer MT (RNA-binding mutant EZH2), sequence (O75530 whole entry, stated change not applied, chain 3 of 4): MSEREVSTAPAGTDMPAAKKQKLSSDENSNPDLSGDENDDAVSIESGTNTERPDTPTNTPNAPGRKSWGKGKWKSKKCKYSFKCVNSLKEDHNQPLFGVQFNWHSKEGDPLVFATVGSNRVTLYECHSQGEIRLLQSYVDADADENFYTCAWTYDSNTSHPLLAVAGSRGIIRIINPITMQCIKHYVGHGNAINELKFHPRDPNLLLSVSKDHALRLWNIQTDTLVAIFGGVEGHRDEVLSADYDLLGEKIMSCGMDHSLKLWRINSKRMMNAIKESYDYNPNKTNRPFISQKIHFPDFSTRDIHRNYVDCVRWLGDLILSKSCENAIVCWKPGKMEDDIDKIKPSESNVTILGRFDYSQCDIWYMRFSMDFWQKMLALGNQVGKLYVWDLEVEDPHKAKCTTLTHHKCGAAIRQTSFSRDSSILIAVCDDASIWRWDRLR
PRC2 4-mer MT (RNA-binding mutant EZH2), sequence (Q09028 whole entry, stated change not applied, chain 4 of 4): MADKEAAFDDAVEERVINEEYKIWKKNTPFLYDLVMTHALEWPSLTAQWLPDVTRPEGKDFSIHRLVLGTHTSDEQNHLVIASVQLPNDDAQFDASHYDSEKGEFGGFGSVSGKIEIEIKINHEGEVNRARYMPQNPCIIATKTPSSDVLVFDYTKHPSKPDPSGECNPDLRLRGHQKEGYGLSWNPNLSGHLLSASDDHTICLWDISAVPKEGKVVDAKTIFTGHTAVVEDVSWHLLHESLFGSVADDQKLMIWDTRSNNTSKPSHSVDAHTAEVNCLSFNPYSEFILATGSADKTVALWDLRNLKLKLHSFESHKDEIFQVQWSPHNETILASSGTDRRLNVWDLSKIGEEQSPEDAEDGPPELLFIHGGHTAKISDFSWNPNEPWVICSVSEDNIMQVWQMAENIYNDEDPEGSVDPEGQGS

GGAAGGAAGGAAGGAAGGAAGGAAGGAAGGAAGGAAGGAA (structured_RNA) [(GGAA)10 G4 RNA 40-mer] showed a Kd [1] of 2 nM and a Kd [2] of 12 nM.

With GGAAGGAAGGAAGGAAGGAAGGAAGGAAGGAAGGAAGGAA (structured_RNA) [Alexa 488-(GGAA)10 RNA] the binding signal [3] was 30 fold koff increase vs WT and the binding signal [4] was 8 fold koff increase vs WT.

Source: paper PMC10353856
